Measurements taken from patent publication US20220259330A1 (SUNSHINE GUOJIAN PHARMACEUTICAL SHANGHAI, published 2022).
Several values for one entry are separate records, joined by “and”; a condition that tells them apart may be missing. Equal values may be shown once.

Legend:
[1] = target: T1, VEGF165-His (human, UniProt P15692-4 27-191); assay: ELISA, plate coated with VEGF165-His
T1 construct: also called Human VEGF165 with a 6*His tag
T1 sequence: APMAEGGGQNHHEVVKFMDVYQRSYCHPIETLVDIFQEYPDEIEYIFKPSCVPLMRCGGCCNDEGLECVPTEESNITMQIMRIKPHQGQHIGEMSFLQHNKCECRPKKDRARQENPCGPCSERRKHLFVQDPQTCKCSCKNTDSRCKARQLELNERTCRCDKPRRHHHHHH
Experimental: The ELISA detection method used in the following examples is described as follows: An ELISA plate was coated with recombinant proteins, respectively, and blocked with PBST containing 1% bovine serum albumin (PBST: phosphate buffer containing 0.05% Tween-20). The antibody to be tested was serially diluted, and then transferred to the above plate coated with recombinant protein, incubated at room temperature for half an hour and then the plate was washed; an appropriately diluted HRP (Horseradish Peroxidase)-labeled goat anti-human antibody (Fc- or Fab Specific, purchased from Sigma) was added, incubated at room temperature for half an hour and then the plate was washed; 100 μl of chromogenic solution with TMB (3,3′,5,5′-Tetramethylbenzidine) as a substrate was added to each well, incubated at room temperature for 1-5 min; 50 μl of stop solution (2M H₂SO₄) was added to stop the reaction. OD450 was read with a microplate reader (SpectraMax 190), and graphing and data analysis were performed using GraphPad Prism6, and EC50 was calculated.
Human VEGF165 with a 6*His tag (sequence from NCBI, Accession: AAM03108), and this recombinant protein was denoted as VEGF165-His. An ELISA plate was coated with PD1-His and VEGF165-His, with a coating concentration of 20 ng/well and 10 ng/well, respectively.

[2] = target: T2, CD137-ECD-Fc (human, UniProt Q07011 24-186); assay: ELISA, plate coated with CD137-ECD-Fc
T2 construct: extracellular domain; Bought; also called recombinant protein of the extracellular segment of human CD137 with Fc tags (Sino Biological 10041-H02H); not shown: Fc tag
T2 sequence (Q07011 24-186): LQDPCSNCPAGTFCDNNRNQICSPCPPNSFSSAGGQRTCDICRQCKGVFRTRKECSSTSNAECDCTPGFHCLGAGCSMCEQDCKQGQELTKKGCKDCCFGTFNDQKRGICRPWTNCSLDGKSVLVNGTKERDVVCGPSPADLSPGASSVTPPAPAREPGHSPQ

[3] = target: T3, CD47-ECD-His (human, UniProt Q08722 19-139); assay: ELISA, plate coated with CD47-ECD-His
T3 construct: extracellular domain; Bought; also called recombinant protein of the extracellular segment of human CD47 with a polyhistidine tag (Sino Biological 12283-H08H); not shown: polyhistidine tag
T3 sequence (Q08722 19-139 limits assumed): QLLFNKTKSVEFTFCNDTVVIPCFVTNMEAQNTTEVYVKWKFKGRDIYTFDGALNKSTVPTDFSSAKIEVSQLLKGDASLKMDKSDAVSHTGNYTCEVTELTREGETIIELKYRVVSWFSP

[4] = target: T4, HER2-ECD-His (human, UniProt P04626 23-652); assay: ELISA, plate coated with HER2-ECD-His
T4 construct: extracellular domain; Bought; also called recombinant protein of the extracellular segment of human Her-2 with a polyhistidine tag (ACROBiosystems HE2-H5225); not shown: polyhistidine tag

[5] = target: T5, PD1-ECD-His (human, UniProt Q15116 25-170); assay: ELISA, plate coated with PD1-ECD-His
T5 construct: extracellular domain; Bought; also called recombinant protein of the extracellular segment of human PD-1 with a polyhistidine tag (Sino Biological 10377-H08H); not shown: polyhistidine tag
T5 sequence (Q15116 25-170): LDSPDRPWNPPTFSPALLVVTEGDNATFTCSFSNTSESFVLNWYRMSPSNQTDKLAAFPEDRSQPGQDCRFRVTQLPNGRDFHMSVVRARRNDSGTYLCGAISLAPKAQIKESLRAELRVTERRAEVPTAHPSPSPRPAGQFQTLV

B1: 601-HC+20-Hu-LC (antibody, human IgG1, kappa, V domains shown)
VH: EVQLVESGGGLVQPGGSLRLSCAASGYTFTNYGMNWVRQAPGKGLEWVGWINTYTGEPTYAADFKRRFTFSLDTSKSTAYLQMNSLRAEDTAVYYCAKYPHYYGSSHWYFDVWGQGTLVTVSS
VL: DIQMTQSPSSLSASVGDRVTITCSASQGISNFLSWYQQKPGKTVKLLIYYTSSLHSGVPSRFSGSGSGTDYTFTISSLQPEDIATYYCQQYSNLPWTFGQGTKVEIKR
notes: Hybrid antibody
EC50 [1]: 8.22 nM

B2: 601-HC+601-LC-V46L (antibody, human IgG1, kappa, V domains shown)
VH: EVQLVESGGGLVQPGGSLRLSCAASGYTFTNYGMNWVRQAPGKGLEWVGWINTYTGEPTYAADFKRRFTFSLDTSKSTAYLQMNSLRAEDTAVYYCAKYPHYYGSSHWYFDVWGQGTLVTVSS
VL: DIQMTQSPSSLSASVGDRVTITCSASQDISNYLNWYQQKPGKAPKLLIYFTSSLHSGVPSRFSGSGSGTDFTLTISSLQPEDFATYYCQQYSTVPWTFGQGTKVEIKR
EC50 [1]: 0.326 nM

B3: 601-HC+601-LC-D28G (antibody, human IgG1, kappa, V domains shown)
VH: EVQLVESGGGLVQPGGSLRLSCAASGYTFTNYGMNWVRQAPGKGLEWVGWINTYTGEPTYAADFKRRFTFSLDTSKSTAYLQMNSLRAEDTAVYYCAKYPHYYGSSHWYFDVWGQGTLVTVSS
VL: DIQMTQSPSSLSASVGDRVTITCSASQGISNYLNWYQQKPGKAPKVLIYFTSSLHSGVPSRFSGSGSGTDFTLTISSLQPEDFATYYCQQYSTVPWTFGQGTKVEIKR
EC50 [1]: 0.133 nM

B4: 601-HC+601-LC-F71Y (antibody, human IgG1, kappa, V domains shown)
VH: EVQLVESGGGLVQPGGSLRLSCAASGYTFTNYGMNWVRQAPGKGLEWVGWINTYTGEPTYAADFKRRFTFSLDTSKSTAYLQMNSLRAEDTAVYYCAKYPHYYGSSHWYFDVWGQGTLVTVSS
VL: DIQMTQSPSSLSASVGDRVTITCSASQDISNYLNWYQQKPGKAPKVLIYFTSSLHSGVPSRFSGSGSGTDYTLTISSLQPEDFATYYCQQYSTVPWTFGQGTKVEIKR
EC50 [1]: 0.148 nM

B5: 601-HC+601-LC-F50Y (antibody, human IgG1, kappa, V domains shown)
VH: EVQLVESGGGLVQPGGSLRLSCAASGYTFTNYGMNWVRQAPGKGLEWVGWINTYTGEPTYAADFKRRFTFSLDTSKSTAYLQMNSLRAEDTAVYYCAKYPHYYGSSHWYFDVWGQGTLVTVSS
VL: DIQMTQSPSSLSASVGDRVTITCSASQDISNYLNWYQQKPGKAPKVLIYYTSSLHSGVPSRFSGSGSGTDFTLTISSLQPEDFATYYCQQYSTVPWTFGQGTKVEIKR
EC50 [1]: 0.14 nM

B6: 601-HC+601-LC-N34S (antibody, human IgG1, kappa, V domains shown)
VH: EVQLVESGGGLVQPGGSLRLSCAASGYTFTNYGMNWVRQAPGKGLEWVGWINTYTGEPTYAADFKRRFTFSLDTSKSTAYLQMNSLRAEDTAVYYCAKYPHYYGSSHWYFDVWGQGTLVTVSS
VL: DIQMTQSPSSLSASVGDRVTITCSASQDISNYLSWYQQKPGKAPKVLIYFTSSLHSGVPSRFSGSGSGTDFTLTISSLQPEDFATYYCQQYSTVPWTFGQGTKVEIKR
EC50 [1]: 0.208 nM

B7: 601-HC+601-LC-T93N (antibody, human IgG1, kappa, V domains shown)
VH: EVQLVESGGGLVQPGGSLRLSCAASGYTFTNYGMNWVRQAPGKGLEWVGWINTYTGEPTYAADFKRRFTFSLDTSKSTAYLQMNSLRAEDTAVYYCAKYPHYYGSSHWYFDVWGQGTLVTVSS
VL: DIQMTQSPSSLSASVGDRVTITCSASQDISNYLNWYQQKPGKAPKVLIYFTSSLHSGVPSRFSGSGSGTDFTLTISSLQPEDFATYYCQQYSNVPWTFGQGTKVEIKR
EC50 [1]: 0.126 nM

B8: 601-HC+601-LC-Y32F (antibody, human IgG1, kappa, V domains shown)
VH: EVQLVESGGGLVQPGGSLRLSCAASGYTFTNYGMNWVRQAPGKGLEWVGWINTYTGEPTYAADFKRRFTFSLDTSKSTAYLQMNSLRAEDTAVYYCAKYPHYYGSSHWYFDVWGQGTLVTVSS
VL: DIQMTQSPSSLSASVGDRVTITCSASQDISNFLNWYQQKPGKAPKVLIYFTSSLHSGVPSRFSGSGSGTDFTLTISSLQPEDFATYYCQQYSTVPWTFGQGTKVEIKR
EC50 [1]: 0.125 nM

B9: 19H6-Hu (antibody, human IgG1, kappa, V domains shown)
VH: QVQLVQSGAEVKKPGASVKVSCKGSGYTFTDYAIHWVRQAPGQSLEWIGVFSIYYENINYNQKFKGRATMTVDKSTSTAYMELRSLRSDDTAVYYCARRDGGTINYWGQGTLVTVSS
VL: DVVMTQSPLSLPVTLGQPASISCRSSQSLVHSNGNTYLHWYQQRPGQSPRLLIYKVSNRFSGVPDRFSGSGSGTDFTLKISRVEAEDVGVYFCSQSTHIPWTFGQGTKVEIKR
notes: Humanized anti-human HER2, IgG1, kappa; also called 19H6-Hu-HC+19H6-Hu-LC
binding result [2]: no binding | binding result [3]: no binding | EC50 [4]: 0.077 nM and 0.126 nM and 0.122 nM and 0.193 nM

B10: Anti-CD47B-Hu (antibody, human IgG1, kappa, V domains shown)
VH: QVQLVQSGAEVKKPGASVKVSCKASGYTFANHVIHWVRQAPGQGLEWMGYIYPYNDGTKYNEKFKDRVTLTSDKSTSTVYMELSSLRSEDTAVYYCARGGYYTYDDWGQGTLVTVSS
VL: DVVMTQSPLSLPVTLGQPASISCRSSQSLVHSNGKTYLHWYQQRPGQSPRLLIYKVSNRFSGVPDRFSGSGSGTDFTLKISRVEAEDVGVYYCSQSTHVPYTFGQGTKVEIKR
notes: Humanized anti-human CD47, IgG1, kappa; also called humanized MABL-2
EC50 [3]: 0.0428 nM | binding result [4]: no binding

B11: Anti-CD47B-Hu-HC+19H6-Hu-LC (antibody, human IgG1, kappa, V domains shown)
VH: QVQLVQSGAEVKKPGASVKVSCKASGYTFANHVIHWVRQAPGQGLEWMGYIYPYNDGTKYNEKFKDRVTLTSDKSTSTVYMELSSLRSEDTAVYYCARGGYYTYDDWGQGTLVTVSS
VL: DVVMTQSPLSLPVTLGQPASISCRSSQSLVHSNGNTYLHWYQQRPGQSPRLLIYKVSNRFSGVPDRFSGSGSGTDFTLKISRVEAEDVGVYFCSQSTHIPWTFGQGTKVEIKR
notes: Hybrid antibody
EC50 [3]: 0.0541 nM and 0.0617 nM | binding result [4]: no binding

B12: 19H6-Hu-HC+Anti-CD47B-Hu-LC (antibody, human IgG1, kappa, V domains shown)
VH: QVQLVQSGAEVKKPGASVKVSCKGSGYTFTDYAIHWVRQAPGQSLEWIGVFSIYYENINYNQKFKGRATMTVDKSTSTAYMELRSLRSDDTAVYYCARRDGGTINYWGQGTLVTVSS
VL: DVVMTQSPLSLPVTLGQPASISCRSSQSLVHSNGKTYLHWYQQRPGQSPRLLIYKVSNRFSGVPDRFSGSGSGTDFTLKISRVEAEDVGVYYCSQSTHVPYTFGQGTKVEIKR
notes: Hybrid antibody
binding result [3]: no binding | EC50 [4]: 0.139 nM

B13: 609-Fab-137-IgG4 (bispecific antibody)
heavy: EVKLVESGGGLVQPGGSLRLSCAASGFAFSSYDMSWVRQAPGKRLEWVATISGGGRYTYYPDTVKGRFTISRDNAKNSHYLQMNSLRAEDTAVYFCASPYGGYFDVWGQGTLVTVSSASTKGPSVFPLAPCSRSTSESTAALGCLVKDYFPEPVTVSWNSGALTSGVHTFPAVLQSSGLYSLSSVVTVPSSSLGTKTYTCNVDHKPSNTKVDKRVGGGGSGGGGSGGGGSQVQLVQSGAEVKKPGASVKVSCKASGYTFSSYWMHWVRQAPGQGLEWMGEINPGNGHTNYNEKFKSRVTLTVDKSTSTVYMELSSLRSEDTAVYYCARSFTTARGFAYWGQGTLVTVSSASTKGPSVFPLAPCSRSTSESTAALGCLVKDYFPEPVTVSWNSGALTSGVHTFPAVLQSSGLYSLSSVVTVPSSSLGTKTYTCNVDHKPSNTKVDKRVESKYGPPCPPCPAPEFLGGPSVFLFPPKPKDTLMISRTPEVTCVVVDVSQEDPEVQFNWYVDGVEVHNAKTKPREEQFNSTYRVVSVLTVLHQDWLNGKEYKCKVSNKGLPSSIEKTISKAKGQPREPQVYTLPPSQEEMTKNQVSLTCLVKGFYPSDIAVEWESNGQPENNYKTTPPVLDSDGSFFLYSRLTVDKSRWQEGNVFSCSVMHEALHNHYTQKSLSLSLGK
light: EIVMTQSPDFQSVTPKEKVTITCRASQTISDYLHWYQQKPDQSPKLLIKYASQSISGIPSRFSGSGSGSDFTLTINSLEAEDAATYYCQDGHSFPPTFGQGTKVEIKRTVAAPSVFIFPPSDEQLKSGTASVVCLLNNFYPREAKVQWKVDNALQSGNSQESVTEQDSKDSTYSLSSTLTLSKADYEKHKVYACEVTHQGLSSPVTKSFNRGEC
EC50 [5]: 0.229 nM | EC50 [2]: 0.357 nM

B14: 137-Fab-609-IgG4 (bispecific antibody)
heavy: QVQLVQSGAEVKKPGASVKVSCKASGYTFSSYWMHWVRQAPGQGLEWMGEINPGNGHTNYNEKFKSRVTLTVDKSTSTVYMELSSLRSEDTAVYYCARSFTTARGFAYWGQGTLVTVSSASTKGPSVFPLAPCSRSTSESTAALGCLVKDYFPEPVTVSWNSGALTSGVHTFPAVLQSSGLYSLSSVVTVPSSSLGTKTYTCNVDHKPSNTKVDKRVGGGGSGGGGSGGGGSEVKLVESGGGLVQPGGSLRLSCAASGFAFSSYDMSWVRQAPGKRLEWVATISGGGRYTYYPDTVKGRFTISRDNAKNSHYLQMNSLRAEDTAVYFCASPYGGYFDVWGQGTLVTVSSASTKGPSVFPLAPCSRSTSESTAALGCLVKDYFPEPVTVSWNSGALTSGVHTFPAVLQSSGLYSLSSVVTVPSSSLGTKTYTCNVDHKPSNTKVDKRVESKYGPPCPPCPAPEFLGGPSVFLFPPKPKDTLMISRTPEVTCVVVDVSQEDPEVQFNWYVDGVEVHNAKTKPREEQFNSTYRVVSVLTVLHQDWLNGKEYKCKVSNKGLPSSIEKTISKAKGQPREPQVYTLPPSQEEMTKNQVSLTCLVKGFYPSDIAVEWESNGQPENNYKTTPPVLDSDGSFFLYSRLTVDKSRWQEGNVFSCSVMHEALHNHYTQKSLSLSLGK
light: EIVMTQSPDFQSVTPKEKVTITCRASQTISDYLHWYQQKPDQSPKLLIKYASQSISGIPSRFSGSGSGSDFTLTINSLEAEDAATYYCQDGHSFPPTFGQGTKVEIKRTVAAPSVFIFPPSDEQLKSGTASVVCLLNNFYPREAKVQWKVDNALQSGNSQESVTEQDSKDSTYSLSSTLTLSKADYEKHKVYACEVTHQGLSSPVTKSFNRGEC
EC50 [5]: 1.42 nM | EC50 [2]: 0.242 nM

B15: Anti-CD137-Hu (antibody, human IgG4 S228P, kappa, V domains shown)
VH: QVQLVQSGAEVKKPGASVKVSCKASGYTFSSYWMHWVRQAPGQGLEWMGEINPGNGHTNYNEKFKSRVTLTVDKSTSTVYMELSSLRSEDTAVYYCARSFTTARGFAYWGQGTLVTVSS
VL: EIVMTQSPDFQSVTPKEKVTITCRASQTISDYLHWYQQKPDQSPKLLIKYASQSISGIPSRFSGSGSGSDFTLTINSLEAEDAATYYCQDGHSFPPTFGQGTKVEIKR
notes: Humanized anti-human CD137, IgG4 (S228P), kappa; also called humanized 4B4-1-1
binding result [5]: no binding | EC50 [2]: 0.461 nM

B16: Anti-CD137-Hu-HC+609-LC (antibody, human IgG4 S228P, kappa, V domains shown)
VH: QVQLVQSGAEVKKPGASVKVSCKASGYTFSSYWMHWVRQAPGQGLEWMGEINPGNGHTNYNEKFKSRVTLTVDKSTSTVYMELSSLRSEDTAVYYCARSFTTARGFAYWGQGTLVTVSS
VL: EIVLTQSPATLSLSPGERATLSCRASQSISNFLHWYQQKPGQAPRLLIKYASQSISGIPARFSGSGSGTDFTLTISSLEPEDFAVYFCQQSNSWPHTFGQGTKVEIKR
notes: Hybrid antibody
binding result [5]: no binding | binding result [2]: no binding

B17: CD47B-Fab-19H6-IgG1 (bispecific antibody)
heavy: not shown
light: DVVMTQSPLSLPVTLGQPASISCRSSQSLVHSNGNTYLHWYQQRPGQSPRLLIYKVSNRFSGVPDRFSGSGSGTDFTLKISRVEAEDVGVYFCSQSTHIPWTFGQGTKVEIKRTVAAPSVFIFPPSDEQLKSGTASVVCLLNNFYPREAKVQWKVDNALQSGNSQESVTEQDSKDSTYSLSSTLTLSKADYEKHKVYACEVTHQGLSSPVTKSFNRGEC
EC50 [3]: 0.0782 nM | EC50 [4]: 0.106 nM

B18: 19H6-Fab-CD47B-IgG1 (bispecific antibody)
heavy: not shown
light: DVVMTQSPLSLPVTLGQPASISCRSSQSLVHSNGNTYLHWYQQRPGQSPRLLIYKVSNRFSGVPDRFSGSGSGTDFTLKISRVEAEDVGVYFCSQSTHIPWTFGQGTKVEIKRTVAAPSVFIFPPSDEQLKSGTASVVCLLNNFYPREAKVQWKVDNALQSGNSQESVTEQDSKDSTYSLSSTLTLSKADYEKHKVYACEVTHQGLSSPVTKSFNRGEC
EC50 [3]: 0.195 nM | EC50 [4]: 0.154 nM
